Test results from patent CN115969997A.

Biological target: CLDN18.2 (亲和力检测, Table 2 ka/kd/KD)
Experiment: affinity measurement, method not described

- Kd: 2.89 nM
Substance: IMAB362 (antibody)
